Here are results for six molecules from patent publication US20160208003A1 (AFFITECH RESEARCH, published 2016).

Substitutions are numbered along the chain they refer to.

Assay [1] has as its target T1, human CC chemokine receptor 4 (CCR4) (human, UniProt P51679 1-360).
T1 construct: whole, on cells; Always presented on cells; also called CD194; human CCR4
T1 sequence (looked up): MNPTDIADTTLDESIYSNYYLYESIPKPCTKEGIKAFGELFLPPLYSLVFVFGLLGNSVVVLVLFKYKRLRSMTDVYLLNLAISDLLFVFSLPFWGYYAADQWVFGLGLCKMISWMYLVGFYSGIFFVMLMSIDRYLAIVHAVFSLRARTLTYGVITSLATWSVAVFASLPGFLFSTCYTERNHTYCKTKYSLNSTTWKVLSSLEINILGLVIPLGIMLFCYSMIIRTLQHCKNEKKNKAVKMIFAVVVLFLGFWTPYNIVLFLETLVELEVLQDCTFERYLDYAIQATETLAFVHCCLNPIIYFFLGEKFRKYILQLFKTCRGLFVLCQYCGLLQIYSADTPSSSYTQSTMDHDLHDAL
The assay can be described thus: flow cytometry, saturation titration of scFv cross-linked via myc-tag on DT-40 CCR4+ cells; one site-specific binding fit. How it is done: DT 40 and CCRF-CEM cells were cultured as described in Example 2. The DT40 CCR4+ and DT40 (CCR4−) cells were harvested from culture flasks, washed 2 times with PBS (400×g, 5 min, 4° C.) and resuspended in PBS containing 0.2% BSA and 0.09% NaN₃. 1×10⁵ cells per well were aliquoted into V-shaped 96-well plates (Greiner Bio-One, Frikenhausen, Germany). […] […] Cells were washed, resuspended in 200 μl PBS with 0.2% BSA and 0.09% NaN₃, and transferred to a U-shaped 96 well Costar (Corning, Schiphol-Rijik, The Netherlands) plate for flow cytometry using an Easy Cyte device (Guava Technologies, Hayward, Calif., USA).

Assay [2] addresses T1, human CC chemokine receptor 4 (CCR4). The assay can be described thus: competition flow cytometry on CCRF-CEM cells: unlabelled competitor against ca. 20 nM biotinylated MDC, streptavidin-PE [d]. How it is done: The competition binding assays were performed with biotinylated MDC or biotinylated TARC on DT-40-CCR4+ and CCRF-CEM cells. DT40 and CCRF-CEM cells were cultured as described in Example 2. TARC and MDC were biotinylated using standard procedures. The biotinylation process causes some losses, so the concentrations of biotinylated MDC and TARC recited herein are approximate.
The cells were harvested from culture flasks, washed 2 times with PBS (400×g, 5 min, 4° C.) and resuspended in PBS containing 0.2% BSA and 0.09% NaN3. 1×10^5 cells per well were aliquoted into V-shaped 96-well plates (Greiner Bio-One, Frikenhausen, Germany). Cells were centrifuged (400×g, 5 min, 4° C.) and resuspended in 50 μl IgG, single chain or unlabeled ligand (1:10 dilution series starting on 100/500/26, 4 μg/ml) mixed with a fixed concentration of biotinylated ligand (10 or 20 nM, see legend to FIG. 24). The cells were incubated for 2 hours at 4° C. and mixed with a pipette every 45 min. The cells were washed three times with 150 μl PBS with 0.2% BSA and 0.09% NaN3 and stained with 3 μg/ml streptavidin PE (BD Biosciences) for 45 minutes at 4° C. […] Apparent binding affinities (KD) were calculated according to the following equation derived from previously described methods (Kipriyanov et al, 1997b; Schodin & Kranz, 1993): […]
Background: In flow cytometry, cells or beads pass a laser one at a time.

For assay [3] the target is unchanged. In words: IgG1 expressed from pLNO, purified; method not told there.
For assay [4] the target is unchanged. In words: cell-based or functional assay.
Assay [5] shares this target. In words: flow cytometry, IgG titration on DT-40 CCR4+ cells, anti-human-FITC, MFI [a]. How it is done: The quality of the specific binding to DT40+ cells was tested for 9E1 D and 9E10J in scFv or IgG format in a titration experiment.
Alternatively, 9E1D and 9E10J were converted into the full-length human IgG1 and tested for cell binding. The DT40+CCR4 and DT40 cells were harvested from culture flasks, washed 2 times with PBS (400×g, 5 min, 4° C.) and resuspended in PBS containing 0.2% BSA and 0.09% NaN₃. 1×10⁵ cells per well were aliquoted into V-shaped 96-well plates (Greiner Bio-One, Frikenhausen, Germany). Cells were centrifuged (400×g, 5 min, 4° C.) and resuspended in a 1:5 dilution series of IgG starting on 10 μg/ml (50 μl/well). After 1 hour incubation at 4° C., the cells were washed three times with 150 μl PBS with 0.2% BSA and 0.09% NaN₃ and stained with 2.5 μg/ml RPE conjugated goat anti-human IgG (AbDSerotec, Düsseldorf, Germany) or 2.5 μg/ml anti human IgG Fc (goat polyclonal aff. pur) FITC (Sigma Aldrich) for 45 minutes at 4° C. Cells were washed, resuspended in 200 μl PBS with 0.2% BSA and 0.09% NaN₃, and transferred to a U-shaped 96 well Costar (Corning, Schiphol-Rijik, The Netherlands) plate for flow cytometry using an Easy Cyte device (Guava Technologies, Hayward, Calif., USA) or FACS Canto II flow cytometer (BD Biosciences, Heidelberg, Germany).

B1: 9E1D scFv (scFv)
scFv: QVQLVQSGAEVKKPGSSVKVSCKASGGTFSNYAISWVRQAPGQGLEWMGGIIPIFGTANYAQKFQGRVTITADESTSTAYMELSSLRSEDTAVYYCARRGGSYFDYWGQGTLVTVSSKLSGSASAPKLEEGEFSEARVQPVLTQPPSASGTPGQRVTISCSGGGSNIGRRFVNWYQQLPGTAPKLLIYRNNQRPSGVPDRFSGSKSGTSASLVISGLRSEDEADYYCAAWDDSLSGWVFGGGTKLTVLAAAGSEQKLISEEDLNSHHHHHH
notes: also called scFv 9E1D
The Kd is the equilibrium constant for the complex coming apart. A low value points to a tighter complex. Consider B1, for which, in assay [1], the Kd was determined as 5.22 nM.

B2: 9E scFv (scFv)
scFv: QVQLVQSGAEVKKPGSSVKVSCKASGGTFSNYAISWVRQAPGQGLEWMGGIIPIFGTANYAQKFQGRVTITADESTSTAYMELSSLRSEDTAVYYCARRGGSYFDYWGQGTLVTVSSKLSGSASAPKLEEGEFSEARVSYVLTQPPSASGTPGQSVTISCSGSTSNIGSHYVFWYQQLPGTAPRLLIYRNHQRPSGVPDRLSGSKSGTSASLAISGLRSEDEADYYCAVWDDTLSGWVFGGGTKLTVLAAAGSEQKLISEEDLNSHHHHHH
notes: For staining the scFv was pre-incubated with an anti-c-myc antibody with human Fc (cross-linked, dimer-like); also called scFv 9E
For the molecule B2, in assay [1], binding was characterised by a dissociation constant (Kd) of 4.95 nM.

B3: 9E10J scFv (scFv)
scFv: B2 scFv with N31S, I70M, A72R, E74T, A79V
notes: also called scFv 9E10J
For B3, in assay [1], the Kd stood at 1.17 nM. For the same molecule, the “IC50 (read off the curve)” value in assay [2] is around 200 nM.

B4: 11F IgG (full length human IgG1, kappa) (antibody, V domains shown)
VH: not shown
VL: ETTLTQSPGTLSLSPGEGVTLSCRASQSVNRRYLAWYQQKPGQAPRLLIYGASSRATGIPDRFSGSGSGTDFTLTISRLEPEDFAVYYCQQYGSSPLTFGGGTKVEIKR
With B4, the binding result in assay [3] is reported as “binds”.

B5: defucosylated 9E10J IgG (antibody, V domains shown)
VH: QVQLVQSGAEVKKPGSSVKVSCKASGGTFSSYAISWVRQAPGQGLEWMGGIIPIFGTANYAQKFQGRVTMTRDTSTSTVYMELSSLRSEDTAVYYCARRGGSYFDYWGQGTLVTVSS
VL: SYVLTQPPSASGTPGQSVTISCSGSTSNIGSHYVFWYQQLPGTAPRLLIYRNHQRPSGVPDRLSGSKSGTSASLAISGLRSEDEADYYCAVWDDTLSGWVFGGGTKLTVLG
modifications: Fc glycans defucosylated (IgG produced in the presence of Kifunensine, 100 ng/ml)
In the case of B5, the “ADCC of CCRF-CEM cells, EC50 (mean, N=4)” value in assay [4] was found to be 2.1 ng/mL.

B6: 9E1D IgG (full length human IgG1, lambda) (antibody, V domains shown)
VH: B5 VH with S31N, M70I, R72A, T74E, V79A
VL: QPVLTQPPSASGTPGQRVTISCSGGGSNIGRRFVNWYQQLPGTAPKLLIYRNNQRPSGVPDRFSGSKSGTSASLVISGLRSEDEADYYCAAWDDSLSGWVFGGGTKLTVLG
As for B6, the binding result in assay [5] is given as “binds”.
